Test results: patent US20240117061A1 (WUHAN YZY BIOPHARMA, published 2024)

Legend:
[1] = target: T1, recombinant human BCMA-his fusion protein (ACRO Biosystem, Cat. No. BCA-H522y) (human, UniProt Q02223 1-54); assay: ELISA, coated antigen
T1 construct: extracellular domain; Bought protein; also called huBCMA-his; hu BCMA-his; not shown: His tag
T1 sequence (looked up): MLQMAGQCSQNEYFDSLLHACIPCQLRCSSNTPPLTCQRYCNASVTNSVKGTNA
Method: Procedures: huBCMA-his and cynoBCMA-his antigens were prepared into 0.5 μg/mL coating solutions with PBS (pH 7.4). The coating solutions were added to a microplate at 100 μL/well and incubated at 4° C. overnight. The residual coating solution was discarded before 3% BSA was added at 300 μL/well, and the plate was blocked for 3 h at room temperature. The microplate was washed once with PB ST at 300 The stock humanized monoclonal antibody solutions were serially 3-fold diluted to the 11th concentration. The dilutions were added to the microplate at 100 μL/well. After a 1-h incubation at room temperature, the microplate was washed thrice with PBST at 300 The HRP-conjugated 6*His, His-Tag antibody was 25,000-fold diluted with 1% BSA-PBST and added at 100 After another 1-h incubation at room temperature, the microplate was washed thrice with PB ST at 300 μL/well and dried. The TMB chromogenic solution was added at 100 μL. After a 5-min reaction at room temperature, 2 M H2504 was added at 100 μL/well to terminate the reaction. The microplate was placed on a microplate reader (Molecular Devices, SPECTRA Max plus 384) and the absorbance OD450 value was read at 450 nm wavelength.

[2] = target: T2, recombinant human BCMA-mFc fusion protein (human; mouse); assay: indirect ELISA, coated antigen
T2 construct: also called huBCMA-mFc
T2 chain: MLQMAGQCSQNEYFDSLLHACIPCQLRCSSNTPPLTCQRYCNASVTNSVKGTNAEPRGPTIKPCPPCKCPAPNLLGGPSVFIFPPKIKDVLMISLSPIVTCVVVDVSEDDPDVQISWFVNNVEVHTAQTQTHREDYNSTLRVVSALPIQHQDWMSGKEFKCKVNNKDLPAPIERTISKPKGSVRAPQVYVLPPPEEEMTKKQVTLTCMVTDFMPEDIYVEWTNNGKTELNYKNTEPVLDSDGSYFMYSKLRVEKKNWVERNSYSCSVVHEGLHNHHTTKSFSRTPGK
Method: (§1) Procedures: Human, mouse and monkey BCMA antigens were prepared into 0.5 μg/mL coating solutions with PBS buffer. The coating solutions were added to a microplate at 100 μL/well and incubated at 4° C. overnight. The residual coating solution was discarded before 3% BSA was added at 300 μL/well, and the plate was blocked for 3 h at room temperature. The microplate was washed once with PB ST (PBS containing 0.1% of TWEEN 20) at 300 μL/well. The human-mouse chimeric monoclonal antibodies were serially 3-fold diluted from 10 μg/mL to the 9th concentration. The dilutions were added to the microplate at 100 μL/well. After a 1-h incubation at room temperature, the microplate was washed thrice with PB ST at 300 μL/well. The mouse anti-human IgG Fc antibody [HRP] mAb was 25,000-fold diluted with 1% BSA-PBST and added at 100 μL/well. After another 1-h incubation at room temperature, the microplate was washed thrice with PBST at 300 μL/well and dried. The TMB chromogenic solution was added at 100 μL/well. After a 5-min reaction at room temperature, 2 M H₂SO₄ was added at 100 μL/well to terminate the reaction. The microplate was placed on a microplate reader (Molecular Devices, SPECTRA Max plus 384) and the absorbance OD450 value was read at 450 nm wavelength.

[3] = target: T3, human BCMA on cells (NCI-H929, U266B1, HEK293 huBCMA) (human, UniProt Q02223 1-184); assay: flow cytometry on U266B1 cells
T3 construct: whole, on cells; also called cell surface BCMA antigen
T3 sequence (looked up): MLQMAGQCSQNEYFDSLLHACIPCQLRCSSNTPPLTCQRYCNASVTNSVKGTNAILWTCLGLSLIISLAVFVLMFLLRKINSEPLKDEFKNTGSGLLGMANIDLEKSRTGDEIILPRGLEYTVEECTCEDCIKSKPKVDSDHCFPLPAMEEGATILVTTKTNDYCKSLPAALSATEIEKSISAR
Method: (§2) Procedures: The cells were resuspended in PBS, and the cell density was adjusted to 2×10^5 cells/well. Human-mouse chimeric monoclonal antibodies were added to a 96-well plate at 50 μL/well and serially 3-fold diluted from 3000 nM to the 9th concentration. The plate was incubated for 1 h at 4° C. 150 μL of precooled PBS containing 1% of FBS was added into the 96-well plate after the co-incubation with the primary antibody was finished. The mixtures were centrifuged at 300×g for 5 min and the supernatants were discarded. The above procedures were repeated once. The fluorescent secondary antibody PE anti-human IgG Fc (Biolegend, 409304) was added at 80 μL/well. The plate was incubated at 4° C. for 30 min. 150 μL of precooled PBS containing 1% of FBS was added into the 96-well plate after the co-incubation with the secondary antibody was finished. The 96-well plate was centrifuged at 300×g for 5 min and the supernatants were discarded. The above procedures were repeated once. The cells were resuspended in 100 μL of PBS containing 1% of FBS and detected on a flow cytometry (BD Accuri™ C6).

[4] = target: T3, human BCMA on cells (NCI-H929, U266B1, …); assay: flow cytometry on NCI-H929 cells
Method: as §2

[5] = target: T3, human BCMA on cells (NCI-H929, U266B1, …); assay: flow cytometry on NCI-H929 cells; NCI-H929 cells
Method: as §2

[6] = target: T1, recombinant human BCMA-his fusion …; assay: SPR (Biacore T200), anti-His capture on CM5, 1:1 fit
Method: In this example, the antigen-antibody binding kinetics and affinity were determined by the BIACORE method.
Procedures: The anti-histidine antibody (GE, His capture Kit, Cat. No. 28995056) was conjugated to the Sereis S Sensor Chip CMS to capture the test articles, thus acquiring the binding kinetic and affinity data of the antigen, as an analyte, to the test articles. The initial concentration for detecting the binding of the antigen and the test articles was 10 nM. […] The Start up flushing process (1×HBS-EP+buffer) was performed at least thrice before loading to equilibrate the system. The association and dissociation tendencies between the antigen and the test articles were detected. When the dissociation was completed, a regeneration reagent was loaded for regeneration before the detection of the next concentration was performed. After the detection was finished, the data were fitted by using a 1:1 Binding fitting mode in data analysis software (Biacore T200 Evaluation Software).

[7] = target: T1, recombinant human BCMA-his fusion …; assay: competitive ELISA, coated huBCMA-his, competitor APRIL-biotin
Method: (§3) The 96-well microplate was treated with 100 μL of 0.5 μg/mL huBCMA-his in PBS and incubated overnight at 4° C. The plate was then washed thrice with PBS washing buffer containing 0.1% of Tween-20 and blocked with 300 μL of PBS containing 1% of BSA for 2 h. 100 μL of each BCMA antibody was added to the plate. […] The plate was incubated at 37° C. for 1 h, and unbound secondary antibody was washed with PBS washing buffer containing 0.1% of Tween-20. The TMB chromogenic solution was added at 100 μL/well. After a 5-min reaction at room temperature, 2 M H₂SO₄ was added at 100 μL/well to terminate the reaction. The microplate was placed on a microplate reader (Molecular Devices, SPECTRA Max plus 384) and the absorbance OD450 value was read at 450 nm wavelength.

[8] = target: T1, recombinant human BCMA-his fusion …; assay: competitive ELISA, coated huBCMA-his, competitor 83A10-biotin
Method: as §3

[9] = target: T1, recombinant human BCMA-his fusion …; assay: competitive ELISA, coated huBCMA-his, competitor 83A10-biotin, antibody at 7 µg/mL
[10] = target: T4, recombinant human BCMA-huFc fusion protein (human); assay: indirect ELISA, coated antigen
T4 construct: also called huBCMA-huFc
Method: as §1, with “PBST” for “PB ST”, “three mouse BCMA” for “human-mouse chimeric monoclonal”, “7th” for “9th”, “HRP goat anti-mouse” for “mouse anti-human”, “IgG” for “IgG Fc”, “antibody” for “antibody [HRP] mAb”

[11] = target: T5, recombinant cynomolgus monkey BCMA-huFc (cynomolgus monkey; human); assay: indirect ELISA, coated antigen
T5 construct: also called cynoBCMA-huFc
Method: as §1, with “PBST” for “PB ST”, “three mouse BCMA” for “human-mouse chimeric monoclonal”, “7th” for “9th”, “HRP goat anti-mouse” for “mouse anti-human”, “IgG” for “IgG Fc”, “antibody” for “antibody [HRP] mAb”

[12] = target: T3, human BCMA on cells (NCI-H929, U266B1, …); assay: flow cytometry on U266B1 cells; remark: listed apart in the source
Method: (§4) The affinities of the 3 mouse antibodies for cell surface BCMA antigen were assessed using FACS. Materials: cell lines NCI-H929, U266B1, HEK293 cynoBCMA and HEK293; PBS buffer; FBS (fetal bovine serum; Gibco, 10099141); PE goat anti-mouse IgG Fc (Biolegend, 405307). Procedures: The cells were resuspended in PBS to prepare cell suspensions containing 200,000 cells. Mouse BCMA antibodies were added to a 96-well plate at 50 μL/well and serially 3-fold diluted from 3000 nM. The plate was incubated for 1 h at 4° C. 150 μL of precooled PBS containing 1% of FBS was added into the 96-well plate after the co-incubation with the primary antibody was finished. The mixtures were centrifuged at 300×g for 5 min and the supernatants were discarded. The above procedures were repeated once. The fluorescent secondary antibody PE goat anti-mouse IgG Fc was added at 80 μL/well. The plate was incubated at 4° C. for 30 min. 150 μL of precooled PBS containing 1% of FBS was added into the 96-well plate after the co-incubation with the secondary antibody was finished. The mixtures were uniformly mixed with a pipette. The 96-well plate was centrifuged at 300×g for 5 min in a plate centrifuge and the supernatants were discarded. The above procedures were repeated once. The cells were resuspended in 100 μL of PBS containing 1% of FBS and detected on a flow cytometry (BD Accuri™ C6).

[13] = target: T3, human BCMA on cells (NCI-H929, U266B1, …); assay: flow cytometry on NCI-H929 cells; remark: listed apart in the source
Method: as §4

[14] = target: T6, cynomolgus monkey BCMA on HEK293 cynoBCMA cells (cynomolgus monkey, UniProt A0A2K5UD97 1-183); assay: flow cytometry on HEK293 cynoBCMA cells; HEK293 cynoBCMA cells
T6 construct: whole, on cells
Method: as §4

T6 sequence (A0A2K5UD97 entry or part of it): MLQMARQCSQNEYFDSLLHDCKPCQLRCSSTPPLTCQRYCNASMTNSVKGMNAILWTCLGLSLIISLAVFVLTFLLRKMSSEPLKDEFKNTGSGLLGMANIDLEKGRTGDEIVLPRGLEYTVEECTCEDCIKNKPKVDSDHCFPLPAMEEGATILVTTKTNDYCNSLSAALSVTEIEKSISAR
T5 sequence (chain, as listed by the source limits assumed): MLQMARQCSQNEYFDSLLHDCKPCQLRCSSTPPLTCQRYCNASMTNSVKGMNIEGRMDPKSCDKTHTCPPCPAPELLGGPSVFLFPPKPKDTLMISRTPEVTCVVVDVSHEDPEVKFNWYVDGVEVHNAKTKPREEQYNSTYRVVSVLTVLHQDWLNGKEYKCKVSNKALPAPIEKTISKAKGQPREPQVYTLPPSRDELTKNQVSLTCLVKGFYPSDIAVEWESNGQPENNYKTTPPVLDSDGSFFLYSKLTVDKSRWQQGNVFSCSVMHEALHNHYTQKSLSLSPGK

B1: human-mouse chimeric antibody c-mAb1 (antibody, human IgG1, V domains shown)
VH: EVQLQQSGPELVKPGTSVEMSCKASGYTFTDYNIHWVRQRHGESLEWLGYINPNNGVTNFNQKFKGKATLTVNKSSSTAYMELRSLTSDDSAVYYCSSGLFDGYPFPYWGQGTLVTVSA
VL: DIVLTQSPASLVVSLGQRATISCRASKSVSTSGYNYIHWYQQKPGQPPKLLIFLASNLKSGVPARFSGGGSGTDFTLNIHPVEEDDAATYFCQHNRELPYTFGGGTKVEIK
notes: not shown: human IgG1 heavy chain constant region, GenBank No. AK303185.1; human kappa light chain constant region, GenBank No. MG815648.1
- EC50 [1]: 0.00158 nM
- EC50 [2]: 0.647 nM
- EC50 [3]: 1.9 nM
- EC50 [4]: 7.5 nM
- EC50 [5]: 7.5 nM
- Kd [6]: 0.247 nM
- koff [6]: 0.00202 s⁻¹
- kon [6]: 8.18e+06 M⁻¹ s⁻¹
- IC50 [7]: 0.0114 µg/mL
- IC50 [8]: 3.16 µg/mL
- competition [9]: 70%

B2: mouse monoclonal antibody 211B11H10G5 (antibody, V domains shown)
VH: EVQLQQSGPELVKPGASVKILCKASGYTITDYNMDWVKRSHGKSLEWIGNINPHNGGSIYNQKFKGKATLTVDKSSSTAFMELRSLTSEDTAVYYCARGDATLVLDYWGQGTSLTVSS
VL: DIVLTQSPASLAVSLGQRATISCRASKSVSTSGLSYMHWYQQKPGQPPKVLIYLASNLESGVPARFSGSGSGTDFTLNIHPVEEEDAATYYCQHSRELPPTFGAGTKLELK
notes: detected with anti-mouse IgG; also called Clone 211B11H10G5; BCMA-HC3/BCMA-LC3
- EC50 [10]: 0.0492 nM
- EC50 [11]: 0.0309 nM
- EC50 [12]: 24.5 nM
- EC50 [13]: 11.9 nM
- EC50 [14]: 30.9 nM
